{
  "source": "patent US20190225669A1",
  "about": "(ACCELERON PHARMA, published 2019)",
  "key": {"BMP9 [1]": {"target": "T1, BMP9 (UniProt Q9UK05 320-429)", "T1 construct": "also called GDF2", "T1 sequence (looked up)": "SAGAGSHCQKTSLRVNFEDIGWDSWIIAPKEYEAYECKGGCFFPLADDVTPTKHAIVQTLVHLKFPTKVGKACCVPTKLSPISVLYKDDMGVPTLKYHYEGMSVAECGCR", "test": "Biacore SPR; kinetics indeterminate (transient)", "experimental": "(§1) Ligands were injected and allowed to flow over the captured receptor protein."}, "BMP6": {"target": "T2, BMP6 (UniProt P22004 382-513, limits assumed)", "T2 sequence (looked up)": "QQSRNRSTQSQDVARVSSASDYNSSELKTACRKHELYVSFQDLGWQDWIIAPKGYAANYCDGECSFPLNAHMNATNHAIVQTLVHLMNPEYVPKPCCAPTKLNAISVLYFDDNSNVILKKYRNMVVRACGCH", "test": "Biacore SPR", "experimental": "as §1"}, "GDF11": {"target": "T3, GDF11 (UniProt O95390 299-407)", "T3 construct": "also called BMP11", "T3 sequence (looked up)": "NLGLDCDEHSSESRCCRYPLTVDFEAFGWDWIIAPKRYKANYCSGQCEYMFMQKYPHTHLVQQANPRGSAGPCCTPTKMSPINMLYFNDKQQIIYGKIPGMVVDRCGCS", "test": "Biacore SPR", "experimental": "as §1"}, "activin A": {"target": "T4, activin A (UniProt P08476 311-426)", "T4 sequence (looked up)": "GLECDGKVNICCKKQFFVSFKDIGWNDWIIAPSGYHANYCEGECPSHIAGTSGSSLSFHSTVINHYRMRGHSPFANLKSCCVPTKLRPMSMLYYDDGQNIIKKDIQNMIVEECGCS", "test": "Biacore SPR", "experimental": "as §1"}, "activin B [2]": {"target": "T5, activin B (UniProt P09529 293-407)", "T5 sequence (looked up)": "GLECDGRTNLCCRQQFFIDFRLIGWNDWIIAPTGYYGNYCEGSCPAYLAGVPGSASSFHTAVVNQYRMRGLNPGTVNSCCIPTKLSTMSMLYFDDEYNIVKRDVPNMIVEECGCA", "test": "Biacore SPR", "experimental": "as §1"}, "GDF3": {"target": "T6, GDF3 (UniProt Q9NR23 251-364)", "T6 sequence (looked up)": "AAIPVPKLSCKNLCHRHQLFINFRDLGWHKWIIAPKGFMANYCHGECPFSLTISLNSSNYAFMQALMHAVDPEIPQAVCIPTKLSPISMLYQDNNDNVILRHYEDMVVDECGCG", "test": "Biacore SPR", "experimental": "as §1"}, "BMP10 [3]": {"target": "T7, BMP10 (UniProt O95393 317-424)", "T7 sequence (looked up)": "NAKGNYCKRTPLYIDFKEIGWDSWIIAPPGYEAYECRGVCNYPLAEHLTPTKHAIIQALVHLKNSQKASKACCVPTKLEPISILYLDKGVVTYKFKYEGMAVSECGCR", "test": "Biacore SPR", "experimental": "as §1"}, "GDF8": {"target": "T8, GDF8 (UniProt O14793 267-375)", "T8 construct": "also called myostatin", "T8 sequence (looked up)": "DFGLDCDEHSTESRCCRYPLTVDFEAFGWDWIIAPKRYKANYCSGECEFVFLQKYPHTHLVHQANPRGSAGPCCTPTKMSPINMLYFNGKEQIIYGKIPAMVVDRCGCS", "test": "Biacore SPR", "experimental": "as §1"}, "BMP15": {"target": "T9, BMP15 (UniProt O95972 268-392)", "T9 construct": "also called GDF9b", "T9 sequence (looked up)": "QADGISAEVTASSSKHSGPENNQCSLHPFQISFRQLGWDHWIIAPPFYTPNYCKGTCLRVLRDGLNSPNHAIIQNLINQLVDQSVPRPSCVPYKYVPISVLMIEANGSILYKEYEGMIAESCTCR", "test": "Biacore SPR", "experimental": "(§2) A Biacore™-based binding assay was used to compare ligand binding selectivity of the BMPRII-Fc:ALK2-Fc heterodimeric complex described above with that of BMPRII-Fc and ALK2-Fc homodimeric complexes. […] Ligands were injected and allowed to flow over the captured receptor protein."}, "BMP9 [4]": {"target": "T1, BMP9", "test": "Biacore SPR", "experimental": "as §2"}, "BMP7": {"target": "T10, BMP7 (UniProt P18075 293-431)", "T10 sequence (looked up)": "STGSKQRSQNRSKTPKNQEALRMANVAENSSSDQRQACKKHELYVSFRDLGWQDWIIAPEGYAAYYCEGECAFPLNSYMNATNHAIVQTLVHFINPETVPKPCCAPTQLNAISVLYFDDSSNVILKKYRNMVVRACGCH", "test": "Biacore SPR", "experimental": "as §2"}, "activin B [5]": {"target": "T5, activin B", "test": "Biacore SPR", "experimental": "as §2", "remark": "listed apart in the source"}, "BMP10 [6]": {"target": "T7, BMP10", "test": "Biacore SPR", "experimental": "as §2", "remark": "listed apart in the source"}, "BMP5": {"target": "T11, BMP5 (UniProt P22003 317-454, limits assumed)", "T11 sequence (looked up)": "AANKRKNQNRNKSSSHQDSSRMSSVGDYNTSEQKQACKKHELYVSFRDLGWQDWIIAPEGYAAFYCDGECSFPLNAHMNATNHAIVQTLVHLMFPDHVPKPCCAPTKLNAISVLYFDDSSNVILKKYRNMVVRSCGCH", "test": "Biacore SPR", "experimental": "as §2"}},
  "note": "Like-named read-outs stand apart in the source and are kept apart here.",
  "data": [
    {"binder": "ActRIIB-Fc:ALK5-Fc heterodimer (Fc fusion, C-terminal Lys optional; also called ActRIIB-Fc:ALK5-Fc heterodimeric complex) chain 1: GRGEAETRECIYYNANWELERTNQSGLERCEGEQDKRLHCYASWRNSSGTIELVKKGCWLDDFNCYDRQECVATEENPQVYFCCCEGNFCNERFTHLPEAGGPEVTYEPPPTAPTGGGTHTCPPCPAPELLGGPSVFLFPPKPKDTLMISRTPEVTCVVVDVSHEDPEVKFNWYVDGVEVHNAKTKPREEQYNSTYRVVSVLTVLHQDWLNGKEYKCKVSNKALPAPIEKTISKAKGQPREPQVYTLPPSRKEMTKNQVSLTCLVKGFYPSDIAVEWESNGQPENNYKTTPPVLKSDGSFFLYSKLTVDKSRWQQGNVFSCSVMHEALHNHYTQKSLSLSPGK chain 2: ALLPGATALQCFCHLCTKDNFTCVTDGLCFVSVTETTDKVIHNSMCIAEIDLIPRDRPFVCAPSSKTGSVTTTYCCNQDHCNKIELPTTVKSSPGLGPVETGGGTHTCPPCPAPELLGGPSVFLFPPKPKDTLMISRTPEVTCVVVDVSHEDPEVKFNWYVDGVEVHNAKTKPREEQYNSTYRVVSVLTVLHQDWLNGKEYKCKVSNKALPAPIEKTISKAKGQPREPQVYTLPPSREEMTKNQVSLTCLVKGFYPSDIAVEWESNGQPENNYDTTPPVLDSDGSFFLYSDLTVDKSRWQQGNVFSCSVMHEALHNHYTQKSLSLSPG", "values": [
      {"measurement": "Kd", "setting": "BMP9 [1]", "value": "> 6600", "unit": "pM"},
      {"measurement": "Kd", "setting": "BMP6", "value": 1700, "unit": "pM"},
      {"measurement": "koff", "setting": "BMP6", "value": 0.015, "unit": "s⁻¹"},
      {"measurement": "kon", "setting": "BMP6", "value": "9.3e+06", "unit": "M⁻¹ s⁻¹"},
      {"measurement": "Kd", "setting": "GDF11", "value": 200, "unit": "pM"},
      {"measurement": "koff", "setting": "GDF11", "value": 0.00046, "unit": "s⁻¹"},
      {"measurement": "kon", "setting": "GDF11", "value": "2.3e+06", "unit": "M⁻¹ s⁻¹"},
      {"measurement": "Kd", "setting": "activin A", "value": 46, "unit": "pM"},
      {"measurement": "koff", "setting": "activin A", "value": 0.0016, "unit": "s⁻¹"},
      {"measurement": "kon", "setting": "activin A", "value": "3.6e+07", "unit": "M⁻¹ s⁻¹"},
      {"measurement": "Kd", "setting": "activin B [2]", "value": 79, "unit": "pM"},
      {"measurement": "koff", "setting": "activin B [2]", "value": 0.00031, "unit": "s⁻¹"},
      {"measurement": "kon", "setting": "activin B [2]", "value": "3.9e+06", "unit": "M⁻¹ s⁻¹"},
      {"measurement": "Kd", "setting": "GDF3", "value": 8500, "unit": "pM"},
      {"measurement": "koff", "setting": "GDF3", "value": 0.0097, "unit": "s⁻¹"},
      {"measurement": "kon", "setting": "GDF3", "value": "1.1e+06", "unit": "M⁻¹ s⁻¹"},
      {"measurement": "Kd", "setting": "BMP10 [3]", "value": 150, "unit": "pM"},
      {"measurement": "koff", "setting": "BMP10 [3]", "value": 0.0022, "unit": "s⁻¹"},
      {"measurement": "kon", "setting": "BMP10 [3]", "value": "2.3e+07", "unit": "M⁻¹ s⁻¹"},
      {"measurement": "Kd", "setting": "GDF8", "value": 490, "unit": "pM"},
      {"measurement": "koff", "setting": "GDF8", "value": 0.00052, "unit": "s⁻¹"},
      {"measurement": "kon", "setting": "GDF8", "value": "1.1e+06", "unit": "M⁻¹ s⁻¹"}
    ]},
    {"binder": "BMPRII-Fc:ALK2-Fc heterodimer (Fc fusion, C-terminal Lys optional; also called BMPRII-Fc:ALK2-Fc heterodimeric complex) chain 1: SQNQERLCAFKDPYQQDLGIGESRISHENGTILCSKGSTCYGLWEKSKGDINLVKQGCWSHIGDPQECHYEECVVTTTPPSIQNGTYRFCCCSTDLCNVNFTENFPPPDTTPLSPPHSFNRDETGGGTHTCPPCPAPELLGGPSVFLFPPKPKDTLMISRTPEVTCVVVDVSHEDPEVKFNWYVDGVEVHNAKTKPREEQYNSTYRVVSVLTVLHQDWLNGKEYKCKVSNKALPAPIEKTISKAKGQPREPQVYTLPPSRKEMTKNQVSLTCLVKGFYPSDIAVEWESNGQPENNYKTTPPVLKSDGSFFLYSKLTVDKSRWQQGNVFSCSVMHEALHNHYTQKSLSLSPGK chain 2: MEDEKPKVNPKLYMCVCEGLSCGNEDHCEGQQCFSSLSINDGFHVYQKGCFQVYEQGKMTCKTPPSPGQAVECCQGDWCNRNITAQLPTKGKSFPGTQNFHLETGGGTHTCPPCPAPELLGGPSVFLFPPKPKDTLMISRTPEVTCVVVDVSHEDPEVKFNWYVDGVEVHNAKTKPREEQYNSTYRVVSVLTVLHQDWLNGKEYKCKVSNKALPAPIEKTISKAKGQPREPQVYTLPPSREEMTKNQVSLTCLVKGFYPSDIAVEWESNGQPENNYDTTPPVLDSDGSFFLYSDLTVDKSRWQQGNVFSCSVMHEALHNHYTQKSLSLSPG", "values": [
      {"measurement": "Kd", "setting": "BMP15", "value": 1100, "unit": "pM"},
      {"measurement": "koff", "setting": "BMP15", "value": 0.011, "unit": "s⁻¹"},
      {"measurement": "kon", "setting": "BMP15", "value": "9.6e+06", "unit": "M⁻¹ s⁻¹"},
      {"measurement": "Kd", "setting": "BMP9 [4]", "value": 500, "unit": "pM"},
      {"measurement": "koff", "setting": "BMP9 [4]", "value": 0.0051, "unit": "s⁻¹"},
      {"measurement": "kon", "setting": "BMP9 [4]", "value": "1e+07", "unit": "M⁻¹ s⁻¹"},
      {"measurement": "Kd", "setting": "BMP7", "value": 760, "unit": "pM"},
      {"measurement": "koff", "setting": "BMP7", "value": 0.012, "unit": "s⁻¹"},
      {"measurement": "kon", "setting": "BMP7", "value": "1.5e+07", "unit": "M⁻¹ s⁻¹"},
      {"measurement": "Kd", "setting": "activin B [5]", "value": 5200, "unit": "pM"},
      {"measurement": "koff", "setting": "activin B [5]", "value": 0.0031, "unit": "s⁻¹"},
      {"measurement": "kon", "setting": "activin B [5]", "value": 590000, "unit": "M⁻¹ s⁻¹"},
      {"measurement": "Kd", "setting": "BMP10 [6]", "value": 300, "unit": "pM"},
      {"measurement": "koff", "setting": "BMP10 [6]", "value": 0.034, "unit": "s⁻¹"},
      {"measurement": "kon", "setting": "BMP10 [6]", "value": "1.1e+08", "unit": "M⁻¹ s⁻¹"},
      {"measurement": "Kd", "setting": "BMP5", "value": 2800, "unit": "pM"},
      {"measurement": "koff", "setting": "BMP5", "value": 0.005, "unit": "s⁻¹"},
      {"measurement": "kon", "setting": "BMP5", "value": "1.8e+06", "unit": "M⁻¹ s⁻¹"}
    ]}
  ]
}
